Laboratory results reported in paper PMC6879724.

Biological target: Manduca sexta CAD repeat 12 (CR12) fragment
Experiment: ELISA
Conditions: plates coated with 0.5 μg of CR12, read off a plot

Row | Substance | response (Absorbance 490 nm) (25 nM protoxin mixed with PxHsp90 at a 1:30 ratio (protoxin to chaperone), parent measured without PxHsp90, parent: est. …) | response (Absorbance 490 nm) (25 nM protoxin, no PxHsp90, parent: est. 0.86) | response (Absorbance 490 nm) (50 nM protoxin mixed with PxHsp90 at a 1:30 ratio (protoxin to chaperone), parent measured without PxHsp90, parent: est. …) | response (Absorbance 490 nm) (50 nM protoxin, no PxHsp90, parent: est. 0.95) | response (Absorbance 490 nm) (100 nM protoxin mixed with PxHsp90 at a 1:30 ratio (protoxin to chaperone), parent measured without PxHsp90, parent: est. …) | response (Absorbance 490 nm) (100 nM protoxin, no PxHsp90, parent: est. 1.2) | response (Absorbance 490 nm) (25 nM activated toxin mixed with PxHsp90 at a 1:30 ratio (toxin to chaperone), parent measured without PxHsp90, parent: est. 1.2) | response (Absorbance 490 nm) (25 nM activated toxin, no PxHsp90, parent: est. 1.2) | response (Absorbance 490 nm) (50 nM activated toxin mixed with PxHsp90 at a 1:30 ratio (toxin to chaperone), parent measured without PxHsp90, parent: est. 1.6) | response (Absorbance 490 nm) (50 nM activated toxin, no PxHsp90, parent: est. 1.6) | response (Absorbance 490 nm) (100 nM activated toxin mixed with PxHsp90 at a 1:30 ratio (toxin to chaperone), parent measured without PxHsp90, parent: est. 1.7) | response (Absorbance 490 nm) (100 nM activated toxin, no PxHsp90, parent: est. 1.7)
1 | Cry1Ab protoxin (from UniProt P0A370) G439D | 0.82 | 0.44 | 1.2 | 0.47 | 1.6 | 0.52 | – | – | – | – | – | –
2 | Cry1Ab activated toxin (from UniProt P0A370) G439D | – | – | – | – | – | – | 0.58 | 0.44 | 0.77 | 0.48 | 1.1 | 0.66
